Laboratory results published in patent US20180066015A1, “INHIBITORS OF GROWTH FACTOR ACTIVATION ENZYMES” (Washington University, published 2018).
“And” between values parts separate entries of the source, which are not always exact repeats. Equal entries are not always repeated. Where two headings read alike, the source gives them in different places. Positions of bridges follow the written chain, without caps; N, C: chain ends. Primed or numbered codes have the meaning given here. *: point of attachment. kbt‑6‑CONH‑4‑piperidine = ketobenzothiazole-6-CONH-4-piperidine (Kbt-4-piperidinylamide), O=C(NC1CCNCC1)c1ccc2nc(*)sc2c1; ketothiazole = C-terminal ketothiazole (kt), c1csc(*)n1; Kbt = ketobenzothiazole, c1ccc2sc(*)nc2c1; kt = C-terminal ketothiazole, c1csc(*)n1; kt″ = ketothiazole, c1csc(*)n1

T1: matriptase (Charles Craik, UCSF), recombinant (Homo sapiens (Human), UniProt Q9Y5Y6)
T1 sequence: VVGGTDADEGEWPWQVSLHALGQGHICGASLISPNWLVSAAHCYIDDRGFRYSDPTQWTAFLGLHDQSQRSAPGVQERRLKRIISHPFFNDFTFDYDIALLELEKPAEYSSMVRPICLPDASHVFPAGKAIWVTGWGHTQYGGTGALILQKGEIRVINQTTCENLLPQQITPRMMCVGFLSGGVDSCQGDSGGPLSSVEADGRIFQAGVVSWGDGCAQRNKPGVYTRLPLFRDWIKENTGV

T2: matriptase (Charles Craik, UCSF), recombinant (Homo sapiens (Human)) (UniProt Q9Y5Y6)
T2 sequence: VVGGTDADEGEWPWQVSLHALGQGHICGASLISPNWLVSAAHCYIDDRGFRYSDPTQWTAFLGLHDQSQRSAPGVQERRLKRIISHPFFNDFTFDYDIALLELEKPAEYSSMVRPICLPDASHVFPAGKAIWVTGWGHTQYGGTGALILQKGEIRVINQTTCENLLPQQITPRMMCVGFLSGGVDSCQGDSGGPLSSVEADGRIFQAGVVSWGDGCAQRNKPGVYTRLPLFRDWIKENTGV

B1: Ac-SHLR(SEQ ID NO: 11)-kt (peptide)
peptide: Ac-SHLR-kt
SMILES: CC(=O)N[C@@H](CO)C(=O)N[C@@H](Cc1c[nH]cn1)C(=O)N[C@@H](CC(C)C)C(=O)N[C@@H](CCCNC(=N)N)C(=O)c1nccs1
B2: Ac-NKLR(SEQ ID NO: 14)-kt (peptide)
peptide: Ac-NKLR-kt
SMILES: CC(=O)N[C@@H](CC(N)=O)C(=O)N[C@@H](CCCCN)C(=O)N[C@@H](CC(C)C)C(=O)N[C@@H](CCCNC(=N)N)C(=O)c1nccs1
B3: Ac-KRLR(SEQ ID NO: 8)-kbt-Benzyl-4-COOMe (peptide)
peptide: Ac-KRLR-{Kbt-Benzyl‑4‑COOMe}
B4: Ac-KHLR(SEQ ID NO: 2)-kt (peptide)
peptide: Ac-KHLR-{kt″}
SMILES: CC(=O)N[C@@H](CCCCN)C(=O)N[C@@H](Cc1c[nH]cn1)C(=O)N[C@@H](CC(C)C)C(=O)N[C@@H](CCCNC(=N)N)C(=O)c1nccs1
B5: Ac-SRLR(SEQ ID NO: 15)-kt (peptide)
peptide: Ac-SRLR-kt
SMILES: CC(=O)N[C@@H](CO)C(=O)N[C@@H](CCCNC(=N)N)C(=O)N[C@@H](CC(C)C)C(=O)N[C@@H](CCCNC(=N)N)C(=O)c1nccs1
B6: H-cyclo(KQD)RR-kt (peptide)
peptide: H-KQDRR-kt
modifications: lactam 1-3; also: 3:1 D/L diastereomers at the alpha keto carbon
B7: Ac-TKLR(SEQ ID NO: 16)-kt (peptide)
peptide: Ac-TKLR-kt
SMILES: CC(=O)N[C@H](C(=O)N[C@@H](CCCCN)C(=O)N[C@@H](CC(C)C)C(=O)N[C@@H](CCCNC(=N)N)C(=O)c1nccs1)[C@@H](C)O
B8: Ac-WKLR(SEQ ID NO: 12)-kt (peptide)
peptide: Ac-WKLR-kt
SMILES: CC(=O)N[C@@H](Cc1c[nH]c2ccccc12)C(=O)N[C@@H](CCCCN)C(=O)N[C@@H](CC(C)C)C(=O)N[C@@H](CCCNC(=N)N)C(=O)c1nccs1
B9: Ac-SQLR(SEQ ID NO: 7)-kt (peptide)
peptide: Ac-SQLR-kt
SMILES: CC(=O)N[C@@H](CO)C(=O)N[C@@H](CCC(N)=O)C(=O)N[C@@H](CC(C)C)C(=O)N[C@@H](CCCNC(=N)N)C(=O)c1nccs1
B10: Ac-SKFR(SEQ ID NO: 13)-kt (peptide)
peptide: Ac-SKFR-kt
SMILES: CC(=O)N[C@@H](CO)C(=O)N[C@@H](CCCCN)C(=O)N[C@@H](Cc1ccccc1)C(=O)N[C@@H](CCCNC(=N)N)C(=O)c1nccs1
B11: Ac-KFLR(SEQ ID NO: 5)-kt (peptide)
peptide: Ac-KFLR-ketothiazole
SMILES: CC(=O)N[C@@H](CCCCN)C(=O)N[C@@H](Cc1ccccc1)C(=O)N[C@@H](CC(C)C)C(=O)N[C@@H](CCCNC(=N)N)C(=O)c1nccs1
B12: Ac-LLR-kt (peptide)
peptide: Ac-Leu-Leu-Arg-kt
B13: Ac-WRLR(SEQ ID NO: 9)-kt (peptide)
peptide: Ac-WRLR-kt
SMILES: CC(=O)N[C@@H](Cc1c[nH]c2ccccc12)C(=O)N[C@@H](CCCNC(=N)N)C(=O)N[C@@H](CC(C)C)C(=O)N[C@@H](CCCNC(=N)N)C(=O)c1nccs1
B14: Ac-RKLR(SEQ ID NO: 18)-kt (peptide)
peptide: Ac-RKLR-kt
SMILES: CC(=O)N[C@@H](CCCNC(=N)N)C(=O)N[C@@H](CCCCN)C(=O)N[C@@H](CC(C)C)C(=O)N[C@@H](CCCNC(=N)N)C(=O)c1nccs1
B15: Ac-SKLR(SEQ ID NO: 10)-kt (peptide)
peptide: Ac-SKLR-kt
SMILES: CC(=O)N[C@@H](CO)C(=O)N[C@@H](CCCCN)C(=O)N[C@@H](CC(C)C)C(=O)N[C@@H](CCCNC(=N)N)C(=O)c1nccs1
B16: Ac-RQLR(SEQ ID NO: 6)-kt (peptide)
peptide: Ac-RQLR-kt
SMILES: CC(=O)N[C@@H](CCCNC(=N)N)C(=O)N[C@@H](CCC(N)=O)C(=O)N[C@@H](CC(C)C)C(=O)N[C@@H](CCCNC(=N)N)C(=O)c1nccs1
B17: Ac-SKLR(SEQ ID NO: 10)-Kbt-4-piperidinylamide (peptide)
peptide: Ac-SKLR-{kbt‑6‑CONH‑4‑piperidine}
B18: Leupeptin (Ac-LLR-H) (peptide)
peptide: LLR
modifications: N-terminal acetyl; C-terminus printed as -H
B19: Ac-WQLR(SEQ ID NO: 3)-kt (peptide)
peptide: Ac-WQLR-kt
SMILES: CC(=O)N[C@@H](Cc1c[nH]c2ccccc12)C(=O)N[C@@H](CCC(N)=O)C(=O)N[C@@H](CC(C)C)C(=O)N[C@@H](CCCNC(=N)N)C(=O)c1nccs1
B20: Ac-KRLR(SEQ ID NO: 8)-Kbt-5-COOH (peptide)
peptide: Ac-KRLR-Kbt
modifications: not fully specified
B21: Ac-KRLR(SEQ ID NO: 8)-kbt-Benzyl-3-COOMe (peptide)
peptide: Ac-KRLR-{Kbt-Benzyl‑3‑COOMe}

Assays:
[1] = biological target: Hepatocyte Growth Factor Activator (HGFA) serine protease domain, N-terminal His-tag, recombinant (Homo sapiens (Human)) (UniProt Q04756); experiment: fluorogenic inhibition assay
[2] = biological target: Hepatocyte Growth Factor Activator (HGFA) serine protease domain, N-terminal His-tag, recombinant (Homo sapiens (Human)) (UniProt Q04756)
Factor Xa [3] = experiment: chromogenic inhibition assay
recombinant thrombin [4] = experiment: chromogenic inhibition assay
[5] = biological target: T1, matriptase (Charles Craik, UCSF), …; experiment: fluorogenic inhibition assay
Description: (§1) Inhibitors (11-pt serial dilutions, 0-20 μM final concentration in reaction) were serially diluted in DMSO (2% DMSO final concentration) and then mixed with either recombinant serine protease domain of HGFA [Z. Han, P. K. Harris, D. E. Jones, R. Chugani, T. Kim, M. Agarwal, W. Shen, S. A. Wildman, J. W. Janetka, Acs Med Chem Lett 2014, 5, 1219-1224], matriptase (Charles Craik, UCSF) or hepsin* (#4776-SE-010, R&D Systems, Minneapolis, Minn.) in black 384 well plates (Corning #3575. Corning, N.Y.). […] The final substrate concentrations for all assays were at the Kₘ for the respective enzymes. Changes in fluorescence (excitation at 380 nm and emission at 460 nm) were measured at room temperature over time in a Biotek Synergy 2 plate reader (Winnoski, Vt.). Using GraphPad Prism version 6.04 software program, (GraphPad Software, San Diego, Calif., www.graphpad.com), a four parameter curve fit was used to determine the inhibitor IC₅₀s from a plot of the mean reaction velocity versus the inhibitor concentration. The IC₅₀ values represent the average of three separate experimental determinations.

[6] = biological target: T3, Recombinant human hepsin (4776-SE-010, R&D Systems), activated (human, UniProt P05981); experiment: fluorogenic inhibition assay
Description: as §1

[7] = biological target: Recombinant human hepsin (4776-SE-010, R&D Systems), activated (human) (UniProt P05981)
[8] = biological target: T2, matriptase (Charles Craik, UCSF), recombinant (Homo sapiens (Human))
Trypsin = experiment: selectivity inhibition assay
Factor Xa [9] = experiment: selectivity inhibition assay
recombinant thrombin [10] = experiment: selectivity inhibition assay
[11] = biological target: T1, matriptase (Charles Craik, UCSF), …; experiment: fluorogenic inhibition assay; remark: listed apart in the source
Description: as §1
(§2) Fluorescent inhibitor and chromogenic proteolytic assays were performed in general accordance with the procedures described in Example 4 for compounds prepared in Examples 5 and 6.

[12] = biological target: T3, Recombinant human hepsin (4776-SE-010, …); experiment: fluorogenic inhibition assay; remark: listed apart in the source
Description: as §1, §2

Molecule | Ki [1] | IC50 of enzyme inhibition [2] | Ki (Factor Xa [3]) | Ki (recombinant thrombin [4]) | Ki [5] | Ki [6] | IC50 of enzyme inhibition [7] | IC50 of enzyme inhibition [8] | Ki (Trypsin) | Ki (Factor Xa [9]) | Ki (recombinant thrombin [10]) | Ki [11] | Ki [12]
Ac-KQFR(SEQ ID NO: 4)-kt (peptide) | 58 nM | 470 nM | 78.8 nM | > 20000 nM |  |  |  |  |  |  |  |  | 
B1 | 332 nM | 1800 nM |  |  | 104 nM | 0.6 nM | 5 nM | 560 nM |  |  |  |  | 
B2 | 79 nM | 397 nM and 400 nM |  |  | 12 nM and 12.4 nM | 1.4 nM and 1.41 nM |  |  |  |  |  |  | 
B3 | 5.85 nM |  |  |  |  |  |  |  | 0.05 nM | 9 nM | 20.9 nM | 0.98 nM | 0.26 nM
B4 | 96 nM | 650 nM |  |  | 22.3 nM | 0.41 nM |  |  |  |  |  |  | 
B5 | 24 nM | 303 nM |  |  | 5.8 nM | 0.68 nM | 5 nM | 24 nM |  |  |  |  | 
B6 | 5940 nM |  |  |  | 0.71 nM |  |  |  |  |  |  |  | 
B7 | 103 nM | 567 nM |  |  | 8.7 nM | 0.61 nM |  |  |  |  |  |  | 
B8 | 56 nM | 320 nM |  |  | 8.6 nM | 0.55 nM | 4 nM | 97 nM |  |  |  |  | 
B9 | 182 nM | 180 nM |  |  | 9.2 nM | 0.34 nM |  |  |  |  |  |  | 
B10 | 57 nM | 520 nM | 530 nM | > 2000 nM | 3.03 nM | 8.5 nM | 51 nM | 34 nM |  |  |  |  | 
B11 | 80 nM | 330 nM |  |  |  |  | 22 nM | 35 nM |  |  |  |  | 
B12 | 253 nM | 1480 nM |  |  |  | 2.29 nM |  |  |  |  |  |  | 
B13 | 21 nM | 275 nM |  |  | 5.5 nM | 0.21 nM | 0.3 nM | 31 nM |  |  |  |  | 
B14 | 17 nM | 370 nM |  |  | 0.83 nM | 0.47 nM |  |  |  |  |  |  | 
B15 | 81 nM | 560 nM | 3060 nM | > 20000 nM | 58 nM | 1.2 nM |  | 48 nM |  |  |  |  | 
B16 | 60 nM | 270 nM | 8.1 nM | > 20000 nM | 0.32 nM | 0.28 nM | 1 nM | 1 nM |  |  |  |  | 
B17 | 7.7 nM |  |  |  |  |  |  |  | 0.41 nM | 447 nM | 2950 nM | 1.28 nM | 0.2 nM
B18 | 188 nM | 535 nM |  |  | 696 nM | 61 nM | 256 nM | 1150 nM |  |  |  |  | 
B19 | 65 nM | 471 nM |  |  | 32.4 nM | 0.21 nM | 1 nM | 49 nM |  |  |  |  | 
B20 | 6.07 nM |  |  |  |  |  |  |  | 1.06 nM | 20.2 nM | 1940 nM | 5.14 nM | 0.37 nM
B21 | 7.76 nM |  |  |  |  |  |  |  | 0.04 nM | 14 nM | 85.4 nM | 1.8 nM | 0.36 nM
